This is an account of results in IntAct's records for PubMed 22493223.

B1: Mitotic spindle assembly checkpoint protein MAD1 (Homo sapiens), Q9Y6D9 (parent)
chain: MEDLGENTMVLSTLRSLNNFISQRVEGGSGLDISTSAPGSLQMQYQQSMQLEERAEQIRSKSHLIQVEREKMQMELSHKRARVELERAASTSARNYEREVDRNQELLTRIRQLQEREAGAEEKMQEQLERNRQCQQNLDAASKRLREKEDSLAQAGETINALKGRISELQWSVMDQEMRVKRLESEKQELQEQLDLQHKKCQEANQKIQELQASQEARADHEQQIKDLEQKLSLQEQDAAIVKNMKSELVRLPRLERELKQLREESAHLREMRETNGLLQEELEGLQRKLGRQEKMQETLVGLELENERLLAKLQSWERLDQTMGLSIRTPEDLSRFVVELQQRELALKDKNSAVTSSARGLEKARQQLQEELRQVSGQLLEERKKRETHEALARRLQKRVLLLTKERDGMRAILGSYDSELTPAEYSPQLTRRMREAEDMVQKVHSHSAEMEAQLSQALEELGGQKQRADMLEMELKMLKSQSSSAEQSFLFSREEADTLRLKVEELEGERSRLEEEKRMLEAQLERRALQGDYDQSRTKVLHMSLNPTSVARQRLREDHSQLQAECERLRGLLRAMERGGTVPADLEAAAASLPSSKEVAELKKQVESAELKNQRLKEVFQTKIQEFRKACYTLTGYQIDITTENQYRLTSLYAEHPGDCLIFKATSPSGSKMQLLETEFSHTVGELIEVHLRRQDSIPAFLSSLTLELFSRQTVA

The assay covers variants of B1. Particulars: with md2l1_human MAD2L1, Q13257.
Sequence of md2l1_human MAD2L1, Q13257 (Q13257 whole entry): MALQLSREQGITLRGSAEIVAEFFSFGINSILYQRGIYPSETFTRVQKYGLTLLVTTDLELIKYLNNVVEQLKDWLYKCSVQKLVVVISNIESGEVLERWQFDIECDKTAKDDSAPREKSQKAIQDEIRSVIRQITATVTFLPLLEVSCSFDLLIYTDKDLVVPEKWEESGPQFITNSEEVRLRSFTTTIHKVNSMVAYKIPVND
In the case of K541A;V542A;L543A;H544A;M545A, the “effect of a mutation on the interaction” value was “disrupting interaction strength”.
